Laboratory results taken from article doi:10.1101/2023.04.13.536796.

Biological target: SEL1L S658P, endogenous, liver of knock-in mice (mouse (endogenous in liver)) (UniProt Q9Z2G6)
Assay: co-IP

Sequence of UniProt Q9Z2G6 (Q9Z2G6 22-790, stated change not applied): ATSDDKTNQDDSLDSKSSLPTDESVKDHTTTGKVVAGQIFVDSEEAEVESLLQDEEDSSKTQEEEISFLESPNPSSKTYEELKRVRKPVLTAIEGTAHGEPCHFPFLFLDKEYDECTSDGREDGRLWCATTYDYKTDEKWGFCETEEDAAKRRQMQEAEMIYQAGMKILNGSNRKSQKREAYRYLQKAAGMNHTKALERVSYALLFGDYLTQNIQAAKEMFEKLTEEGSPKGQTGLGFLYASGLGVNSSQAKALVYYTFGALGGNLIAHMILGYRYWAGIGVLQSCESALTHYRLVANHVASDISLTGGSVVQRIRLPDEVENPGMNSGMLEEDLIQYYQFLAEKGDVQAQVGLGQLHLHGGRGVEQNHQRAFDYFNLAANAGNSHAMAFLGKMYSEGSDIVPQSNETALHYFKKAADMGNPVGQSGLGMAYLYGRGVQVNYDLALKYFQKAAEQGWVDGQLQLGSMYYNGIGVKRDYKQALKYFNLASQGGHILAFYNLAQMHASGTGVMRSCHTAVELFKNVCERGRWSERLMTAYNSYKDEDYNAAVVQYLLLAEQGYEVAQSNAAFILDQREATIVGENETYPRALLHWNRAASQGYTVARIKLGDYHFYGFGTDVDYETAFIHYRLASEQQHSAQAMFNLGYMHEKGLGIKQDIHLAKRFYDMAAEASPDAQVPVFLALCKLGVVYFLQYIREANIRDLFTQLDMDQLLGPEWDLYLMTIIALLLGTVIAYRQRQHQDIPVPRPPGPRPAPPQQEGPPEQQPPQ

Substance: HRD1, endogenous, mouse liver (from UniProt Q9DBY1 1-612) (natural protein)
- fold reduction of co-precipitated HRD1 against WT livers: 5 fold
